Among the data in paper doi:10.1101/2020.07.16.20155853 are stoichiometry N values, retold here.

This test deals with SARS-CoV-2 Cys-like protease (Mpro) (SARS-CoV-2 (Wuhan-Hu-1 strain)). In words: SEC. In general terms: In gel filtration, larger molecules generally elute earlier.

Usually stoichiometry N stands for a count of units in the complex or per binding partner. “SARS-CoV-2 Cys-like protease (Mpro) (enzyme)” displayed a stoichiometry N of 2.
